Reference: publication PMC10345191 (NPJ Vaccines, 2023)

Legend:
[1] = target: T1, ConM SOSIP soluble gp140 Env trimer, unmodified (GMP) (HIV-1 (group M consensus)); assay: BLI; settings: both partners purified
T1 construct: copies: 3 + 3

[2] = target: T2, EDC cross-linked ConM SOSIP soluble gp140 Env trimer (GMP) (HIV-1 (group M consensus)); assay: BLI; settings: both partners purified
T2 construct: copies: 3 + 3

B1: PGT122 Fab (Fab, V domains shown)
VH: QVHLQESGPGLVKPSETLSLTCNVSGTLVRDNYWSWIRQPLGKQPEWIGYVHDSGDTNYNPSLKSRVHLSLDKSKNLVSLRLTGVTAADSAIYYCATTKHGRRIYGVVAFKEWFTYFYMDVWGKGTSVTVSS
VL: APTFVSVAPGQTARITCGEESLGSRSVIWYQQRPGQAPSLIIYNNNDRPSGIPDRFSGSPGSTFGTTATLTITSVEAGDEADYYCHIWDSRRPTNWVFGEGTTLIVL
notes: source: Freestyle 293F cells, serum-free, purified (HiTrap KappaSelect, Mono S)
B1 showed a Kd [1] of under 1 pM, a koff [1] of under 1e-07 s⁻¹ and a Kd [2] of under 1 pM. It also gave a koff [2] of under 1e-07 s⁻¹.
